According to PMC11423568, “Functional investigation of the two ClpPs and three ClpXs in Myxococcus xanthus DK1622” (mSphere, 2024):

T1: Myxococcus xanthus DK1622 trigger factor Tig (MXAN_2013), His- or MBP-tagged, for pulldown (Myxococcus xanthus DK1622, UniProt Q1DAT1 1-425)
T1 construct: ribosome-associated molecular chaperone trigger factor, Myxococcus xanthus DK1622, locus MXAN_2013; source: E. coli BL21, purified (Ni Sepharose for His tag, maltose elution for MBP)
T1 sequence (looked up): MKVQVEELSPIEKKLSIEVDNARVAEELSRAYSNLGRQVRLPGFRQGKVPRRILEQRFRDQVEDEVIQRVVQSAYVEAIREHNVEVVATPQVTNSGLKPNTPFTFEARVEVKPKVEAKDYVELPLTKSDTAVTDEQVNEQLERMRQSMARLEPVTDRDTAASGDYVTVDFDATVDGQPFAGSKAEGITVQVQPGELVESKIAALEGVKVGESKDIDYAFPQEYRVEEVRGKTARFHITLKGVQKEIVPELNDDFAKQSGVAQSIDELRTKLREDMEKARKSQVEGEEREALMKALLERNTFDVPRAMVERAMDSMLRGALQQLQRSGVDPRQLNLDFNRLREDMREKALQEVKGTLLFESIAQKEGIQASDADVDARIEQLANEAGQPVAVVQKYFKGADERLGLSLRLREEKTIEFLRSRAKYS


Assays:
[1] = target: T1, Myxococcus xanthus DK1622 trigger …; experiment: pull-down; purified His-tagged and MBP-tagged proteins mixed, room temperature 30 min, passed through Ni-NTA resin (His-tagged protein held), washed with suspension buffer, eluted with 250 mM imidazole; MBP mixed with His-labeled protein as negative control; conditions: both partners purified
[2] = target: the molecule itself; experiment: cross-linking; 20 µM ClpP1 or ClpP2 in 20 mM HEPES, 100 mM NaCl, 1 mM EDTA, pH 7.5, 25°C; glutaraldehyde (0.1% in methods, 1% in legend) 10 min, quenched with 200 mM Tris-HCl pH 7.5; SDS-PAGE

Row | Binder | binding result [1] | stoichiometry N [2]
1 | Myxococcus xanthus DK1622 ClpP1 (MXAN_2014), His- or MBP-tagged, for pulldown (enzyme, ClpP1, peptidase subunit of ClpXP, Myxococcus xanthus DK1622, locus MXAN_2014; source: E. coli BL21, purified (Ni Sepharose for His tag, maltose elution for MBP)) not shown | binds | 
2 | Myxococcus xanthus DK1622 ClpP1 (MXAN_2014), no tag (enzyme, ClpP1, peptidase subunit of ClpXP, Myxococcus xanthus DK1622, locus MXAN_2014; also called nonlabeled ClpP1; nontagged ClpP1; source: E. coli BL21, purified; copies: 14) not shown |  | 14
